± gives the standard deviation.
Assay: protein stability index of a GFP-peptide fusion (GPS, HEK-293T) (PSI 1-6); higher = more stable
[1] = treatment: DMSO, c terminus: a fixed tail appended
[2] = treatment: MLN4924 1 uM, 8 h, c terminus: a fixed tail appended
[3] = treatment: DMSO, c terminus: native
[4] = treatment: MLN4924 1 uM, 8 h, c terminus: native
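Also: 24-mer peptide tiles fused after GFP, lentivirally expressed, FACS-sorted into six equal bins by GFP/DsRed ratio, decoded by Illumina sequencing, PSI is the read-weighted mean bin number.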

Row | Sequence | protein stability index [1] | protein stability index [2] | protein stability index [3] | protein stability index [4]
1 | GLKPGPEDGPGKEEAPELDEAELD [SERTAD1] | 5.67 ± 0.34 | 5.83 ± 0.064 | – | –
2 | SQSPRAAGPREGHSHSHHHHHRG [PBXIP1] | – | – | 3.02 ± 0.69 | 4.03 ± 0.49
3 | SQLDEDEHGLHTKYIHRMMQIEFI [TRAF3IP2] | 2.44 ± 0.1 | 2.56 ± 0.34 | – | –
4 | SGWIFFYVPSSESFIIYLKNIVIA [P2RY14] | 3.26 ± 0.53 | 3.09 ± 0.88 | – | –
5 | RQVPGSDPACYEFLWGPRALVETS [MAGEA3] | 3.11 ± 0.23 | 3.04 ± 0.37 | – | –
6 | SLAIFSEELDGLCFKGELPLRAVH [PLEKHN1] | 2.42 ± 0.13 | 2.46 ± 0.43 | – | –
7 | DHMRKKQHRKINPKNREYDRFYVI [ZNF277] | 2.21 ± 0.29 | 2.03 ± 0.28 | – | –
8 | AAAAAHSTPVRREVTDKEQEFAAR [EPB41L3] | 5.28 ± 0.47 | 5.18 ± 0.56 | – | –
9 | QGEPLGYRQDDPSYRSFHSGGYGQ [CTNNB1] | 3.76 ± 0.48 | 3.96 ± 0.24 | – | –
10 | VDDVSVSLRLWDTFGDHHKDRRFA [RHOBTB2] | 3.28 ± 0.23 | 3.19 ± 0.28 | – | –
11 | MKGFSFKEDTLLLIAEVMGEDIPE [C8orf76] | 2.09 ± 0.11 | 2.21 ± 0.24 | – | –
12 | GEGVERELFVREPTGRLPALVRWW [MYORG] | 2.91 ± 0.075 | 2.77 ± 0.34 | – | –
13 | CSLYENDCIFDKFECAWNGSDSVI [PPP2R2C] | 2.21 ± 0.17 | 2.17 ± 0.15 | – | –
14 | QWQDLMSIMEMQAMEVNTSASEIL [NFE2L1] | 2.88 ± 0.45 | 2.86 ± 0.4 | – | –
15 | KAFADPEVLRRLTSSVSCALDEAA [ANKRD17] | 3.08 ± 0.34 | 3.18 ± 0.21 | – | –
16 | HPLHPRHRKAVHLRTRGRTRGWVQ [C6orf223] | 3.15 ± 0.23 | 3.05 ± 0.49 | – | –
17 | WVKQQAEREAEKEQKRLERLQRKL [SDE2] | 4.18 ± 0.36 | 4.1 ± 0.33 | – | –
18 | HRDIKPDNLLLDAKGHVKLSDFGL [STK38L] | 3.27 ± 0.23 | 3.4 ± 0.15 | – | –
19 | NGSLYGQASSERLGLDNRLFGHPG [ADAMTSL2] | 3.17 ± 0.53 | 3.46 ± 0.25 | – | –
20 | VKDALFCSCLSDILRFIYSGAFQW [RHOBTB3] | 2.79 ± 0.36 | 3.31 ± 0.48 | – | –
21 | SLHPESGQENDATSPHFSTRHEGS [CD69] | 5.4 ± 0.23 | 5.33 ± 0.14 | – | –
22 | PRAVLKPRRVCVGGKRRRDDISVD [PPP2R2C] | 4.02 ± 0.18 | 4.25 ± 0.39 | – | –

Row | Sequence | protein stability index [1] | protein stability index [2] | protein stability index [3] | protein stability index [4]
23 | VQESQSERLQAAGTDSAGPKTVPS [ELOA2] | 5.29 ± 0.38 | 5.19 ± 0.35 | – | –
24 | MTTCSRQFTSSSSMKGSCGIGGGI [KRT16] | 2.41 ± 0.5 | 2.33 ± 0.16 | – | –
25 | LAATTSMAYAKLMLTVMTKYQANI [FANCE] | 2.92 ± 0.32 | 3.26 ± 0.72 | – | –
26 | LITFDNKAHSGRIPISLETQAHIQ [MCOLN1] | 2.91 ± 0.26 | 3.04 ± 0.23 | – | –
27 | KLDIQCDLKTLSDDIKESLESEGK [ATE1] | 5.19 ± 0.23 | 5.01 ± 0.1 | – | –
28 | NGVRVFPPAMPPPATHLSPALAPV [TRIM9] | 3.22 ± 0.28 | 3.34 ± 0.14 | – | –
29 | LIRLFWTWHDERFLYMLMEYVPGG [PRKX] | 2.59 ± 0.47 | 2.48 ± 0.35 | – | –
30 | SLTDISQPTIVEALLGYEMVQVAC [NEK8] | 2.73 ± 0.64 | 2.4 ± 0.5 | – | –
31 | PPKAPPPVIKIPECPSMGTNEAAC [RHOBTB1] | 4.71 ± 0.23 | 4.86 ± 0.2 | – | –
32 | RNLAKRRRTYLGGAAGRSQEPEVP [RSPH3] | 4.38 ± 0.26 | 4.32 ± 0.2 | – | –
33 | HGPFSGFPGPQEHTQVLPDVRLLP [DYRK1B] | 3.57 ± 0.099 | 3.63 ± 0.21 | – | –
34 | KYEHELALRQTVEADVNGLRRVLD [KRT16] | 3.98 ± 0.15 | 4.09 ± 0.15 | – | –
35 | PGGPRNLKPTASKLGAPLSGLQGL [PDLIM4] | 3.54 ± 0.21 | 3.54 ± 0.053 | – | –
36 | GNKSDLKQLRQVTKEEGLALAREF [RIT1] | 4.31 ± 0.25 | 4.26 ± 0.12 | – | –
37 | GGPGGRGPWSCENFNPLLVAGGVA [CEND1] | 2.82 ± 0.23 | 2.72 ± 0.18 | – | –
38 | NRFEVTLEKSNKNFSKKIQQIHVV [VPS39] | 2.36 ± 0.4 | 2.42 ± 0.22 | – | –
39 | SNFYTVAVTSLSSQIQYMNTVVST [TMEM106C] | 3.13 ± 0.59 | 3.11 ± 0.49 | – | –
40 | KELEKRREESQHEIKDVLVWTNDQ [PPFIA4] | 5.27 ± 0.17 | 5.25 ± 0.21 | – | –
41 | IEEGFNPVQASQLEEEFDSDSGLS [NFE2L1] | 5.37 ± 0.25 | 5.44 ± 0.16 | – | –
42 | KASGRFGLLQGTSAETSGGLLICL [SEPHS2] | 2.53 ± 0.83 | 2.41 ± 0.69 | – | –
43 | VAFRGLKGKKLYPVVSAVWGHCEI [SPSB1] | 2.62 ± 0.13 | 3.16 ± 0.071 | – | –
44 | VEAKSWTASSSYGKGEGPIWLDNL [LOXL2] | 2.42 ± 0.31 | 2.61 ± 0.74 | – | –

Row | Sequence | protein stability index [1] | protein stability index [2] | protein stability index [3] | protein stability index [4]
45 | PKRRMRYFDPLRNEYFFDRNRPSF [KCNA3] | 2.37 ± 0.26 | 2.6 ± 0.65 | – | –
46 | SDPDCSMRPTLIDLLPTFRHTLQK [FBXO39] | 3.33 ± 0.27 | 3.45 ± 0.28 | – | –
47 | DVYRDGTGVVEFVRKEDMTYAVRK [SRSF1] | 3.96 ± 0.26 | 4.47 ± 0.18 | – | –
48 | LGACVAPGGNLIVELARYLVDVRQ [DNAAF3] | 2.57 ± 0.44 | 2.12 ± 0.2 | – | –
49 | KGGQDVKKKVHLSEKIHPFIRKSI [PRIM1] | 3.85 ± 0.53 | 3.59 ± 0.48 | – | –
50 | ERVALANRKRECGNAHYQRADFVL [FKBP8] | 2.98 ± 0.27 | 2.75 ± 0.12 | – | –
51 | MAGCRGSLCCCCRWCCCCGERETR [CLCN6] | 2.42 ± 0.28 | 2.98 ± 0.44 | – | –
52 | NKPMLADVVFEIQGTTVPAHRAIL [RHOBTB3] | 2.3 ± 0.27 | 2.29 ± 0.2 | – | –
53 | CMFQEHKNHSTVTVEEAKAEKETE [TRIM29] | 5.52 ± 0.22 | 5.36 ± 0.24 | – | –
54 | KRSSRRVQRHNSFSPNSPQFNVSG [NECAB1] | 4.12 ± 0.19 | 4.27 ± 0.13 | – | –
55 | WEGFIGGFFSTVVFGFIAAYVLSK [CDS1] | 2.55 ± 0.54 | 3.08 ± 0.15 | – | –
56 | AFRWGAHLVQHQRIHSGEKPYECN [ZNF232] | 2.79 ± 0.25 | 2.87 ± 0.19 | – | –
57 | SDTIYSYVRPERLSPISHGNTIAL [TCF25] | 2.37 ± 0.22 | 2.56 ± 0.31 | – | –
58 | LKPTASKLGAPLSGLQGLPECTRC [PDLIM4] | 3.24 ± 0.31 | 3.44 ± 0.12 | – | –
59 | RDLLGALKHWRRAMELRHQGGEYL [FEM1A] | 2.46 ± 0.2 | 2.5 ± 0.45 | – | –
60 | KACSLLDVAVHMPCLGHTFNAGIQ [ZBED1] | 2.19 ± 0.5 | 2.11 ± 0.36 | – | –
61 | TATCTTNNNPNSCVNIKKIFTDV [KCNA3] | – | – | 4.08 ± 0.24 | 3.97 ± 0.11
62 | MDNNRNLDLDSIIDEVRTQYEEIA [KRT71] | 4.14 ± 0.26 | 4.13 ± 0.17 | – | –
63 | DVTLEASRESSKPRAVLKPRRVCV [PPP2R2C] | 3.68 ± 0.1 | 3.78 ± 0.21 | – | –
64 | TGEAARPHKGLNLHPLLSGRLGRW [PCDHGC5] | 2.77 ± 0.17 | 2.9 ± 0.23 | – | –

Reference: the supplement of paper PMC10567573
